Assay: yeast display, Sf9 membrane polyspecificity reagent, FACS + sequencing; frameworks hold sequencing errors
Procedure, shortened: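 After 36–48 hours of galactose induction, yeast (Saccharomyces cerevisiae BJ5465) displaying a synthetic nanobody library were stained at 4 °C for 1 hour with 10% biotinylated, detergent-solubilized Sf9 membrane reagent. Streptavidin microbeads enriched the stained cells before FACS sorting into low and high (top ~1%) gates on anti-HA and streptavidin fluorescence. Each clone's polyreactivity label reflects its gate of origin.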

Sequence | polyreactivity (PSR sort gate)
QVQLEESGGVLVQAGGSLRLSCAASGSIFDAYAMGWYRQAPGKDRELVADITVSAGRTYYADSVNGRFTISRDNAKNTVYLQMNSLKPEDTAVYYCAADSIVGDGYWSYYWGQGTQVTVSS | low polyreactivity
QVQLVESGGGLVQAGGSLRLSCAASGSISPQNVMGWYRQAPGKERELVAAITWTGTSTYADSVKGSFTISRDNAKNTVYLQMNSLKPEDTAVYYCAARYYAPRWFRYDYWGQGTQVTVSS | low polyreactivity
QVQLVESGGGLVQAGGSLRLSCAASGRTFFRNAMGWYRQAPGKERELVAAISKRGGSTYYADSVKGRFTISRDNAKNTVYLQMNSLKPEDTAVYYCNADPRTVGLDYWGQGTQVTVSS | high polyreactivity
QVQLVESGGGLVQAGGSLRLSCAASGFIFEGYAMGWYRQAPGKERELVATISRSGGRTNYADSVKGRFTISRDNAKNTVYLQMNSLKPEDTAVYYCAAAYLRRVAYDYWGQGTQVTVSS | high polyreactivity
QVQLVESGGGLVQAGGSLRLSCAASGRTFSVNAMGWYRQAPGKERELVAAISSGGGTNYADSVKGRFTISRDNAKNNVYLQMNSLKPEDTAVYYCAARTFGYPSHRKEMEYWGQGTQVTVSS | low polyreactivity
QVQLVESGGGLVQAGGSLRLSCAASGRTFGQNTMGWYRQAPGKERELVAAIRNRGGSTYYADSVKGRFTISRDNAKKTGYVQMNSLKPEDTAVYYCAAYPYWKGDYWGQGTQVTVSS | high polyreactivity
QVQLVESGGGLVQAGGSLRLSCAASGRTFYGYTMGWYRQAPGKERELVAAIRTSGGSTYADSVKGRFTISRDNAKNTVYLQMNSLKPEDTAVYYCAAPRVVYYGTAPAYRYDYWGQGTQVTVSS | high polyreactivity
QVQLVDSGGGLVQAGGSLRLSCAASGRIFSRYAMGWYRQAPGKERELVASISYSGGSTNYADSVKGRFTISRDNAKNTFYLQMNSLKPEDTAVYYCAAGQYSYRRRYNYWGQGTQVTVSS | high polyreactivity
QVQLVESGGGLVQAGGSLRLSCAASGSTFTSYAMGWYRQAPGKERELVAAITYGSGTTYADSVKGRFTISRDNAKNTVYLQMNSLKPEDTAVYYCAADFYYPVLGHGFPTYEYDYWGQGTQVTVSS | low polyreactivity
QVQLVESGGGLVQAGGSLRLSCAASGSTFAGNAMGWYRQAHGKERELVAALDSSTGSTYYAYSVKGRFTISRDNAKNTVYLQMNSVKPEDTAVYYWNKTSFLVKLDYWGQGTQVTVSS | low polyreactivity
QVQLVESGGGLVQAGGSLRLSCAASGSSFRFYAMGWYRQAPGKERELVATIRYSTGTTYYADSVKGRFTISRDNAKNTVYLQMNSLKPEDTAVYYCAAGYFIYSWRIRFDYWGQGTQVTVSS | high polyreactivity
QVQLVESGGGLVQAGGSLRLSCAASGSIFATYAMGWYRQAPGKERELVAAISSSGSRTYYADSVKGRFTNSRDNAKNTVYLQMNSLKPEDTAVYYCAAGSGRFRPGYGYWGQGTQVTVSS | high polyreactivity
QVQLVESGGGLVQAGGSLRLSCAASGGTLDYYVMAWYRQAPGKERELVAAISTNGGSTNYADSVKGRFTISRDNAKNTVYLQMNSLKPEDTAVYYCAATSDVYVFLEFDYWGQGTQVTVSS | low polyreactivity
QVQLVESGGGLVQAGGSLRLSCAASGSIFFAYDMGWYRQAPGKERELVAAISNIDGSTYYADSVKGRFTISRDNAKNTVYLQMNSVKPEDTAVYYCATRVYYLYDYWGQGTQVTVSS | low polyreactivity
QVQLVESGGGLVQAGGSLRLSCAASGRIFPGYVMGWYRQAHGKERELVAAITRGGSTYYADSVKGRFTISRDNAKNTVYLQMNSLKPEDTAVYYCAAKHSHIHYNYWGQGTQVTVSS | low polyreactivity
QVQLVESGGGLVQAGGSLRLSCAASGRTFRYYAMGWYRPAPGKERELVAAITISSGSTYYADSVKGRFTISRDNAKNTVYLQMNSLKPEDTAVYYCAATRRYHFDYWGQGTQVTVSS | high polyreactivity
QVQLVESGGGLVQAGGSLRLSCAASGFTFYYYAMGWYRQAPGKERELVATISSGGSTYYADSVKGRFTISRDNAKNTVYLQMNSLKPEDTAVYYCAADYLIYYLYEGSIKYGYWGQGTQVTVSS | high polyreactivity
QVQHVESGGGLVQAGGSLPLSCAASGFIFTSNSMGWYRQAPGKESEFVAAITSGGITYYADSVKGRFTISRDNAKNTVYLQMNSLKPEDTAVYYCAAVLSYQTPKYYRWRYGYWGQGTQVTVSS | low polyreactivity
QVQLVESGGGLVQAGGSLRLSCAASGSTSESNAMGWYRQAPGKERELVAAIRSSGGGTYYADSVKGRFTISRDNAKNTVYLQMNSLKPEDTAVYYCAKDVPEDYEFYYWGQGTQVTVSS | low polyreactivity
QVQLEESGGGIVQAGGSLRLSCAASGGIFGTYAMGWYRQAPRKERELVASISSDTSTTYADSVKGRFTISRDNAKNTVYLQMNSLKAEDTAVYYCAAGSDYDDDYWGQGTQVTVSS | high polyreactivity
QVQLVESGGGLVQAGGSLRLSCAASGRTFGPYTMGWYRQAPGKERELVATIRSDNTYYADSVKGRFTISRDNAKNTVYLQMNSLKPEDTAVYYCNAGYYSRYSYPYKYYYWGQGTQVTVSS | high polyreactivity
QVQLVESGGGLVEAGGSLRLSCAASGTFVYNAMGWYIQAPGKERELVAAISWSGSSTYADSVKGRFTISRDNAKNTVYLQMNSLKPEDTAVYYCAADGYGYNTYQQYYKKSSYWGQGTQVSVSS | low polyreactivity

Sequence | polyreactivity (PSR sort gate)
QVQLVESGGGLVQAVGSLRLSCAASGFTFGEYDMGSYRHAPGKERELVAAIDSGGSTYYADSVKRRFTISRDNAKNTVYLQMNSLKPEDTALYYCNADSTYDYYELDYDHWGQGTQVTVSS | low polyreactivity
QVQLVESGGGLVQAGGSLRLSCAASGRIFAGYAMGWYRQAPGKERELVARISRGDDSTYYADSVKGRFTISRDNAKNTVYLQMNSLKPEDTAFYFCAADYPDVVYLEYDYWGQGTQVTVSS | low polyreactivity
QVQHVESGGGLVQAGGSLRLSCAASGLTFSSYAMGWYRQAPGKERELVAAISLSGGRTYYADSVKGRFTISRDNAKNTVYLQMNSLKPEDTAVYYCAADPYANWCPYPAWYYGAYNYWGQGTQVTVSS | high polyreactivity
QVQLVESGGGLVQAGRSLRLSCAASGRIFAQNAMGWYRQAPGKERELVAAISWGGGGTYYADSVKGRFTISRDNAKNTVYLQMNSLKPEDTAVYYCAADSPGFGAWDRYEYWGQGTQVTVSS | low polyreactivity
QVQLVESGGGLVQAGGSLRLSCAASGSTFDYYAMGWYRQAPGKERELVAAISRTGGRTYYADSVKGRFTISRDNAKNTVYLQMNSLKPEDTAVYYCNAVTPIGGGDYDYWGEGTQVTVSS | low polyreactivity
QVQLVESGGGLVQAGGSLRLSCAASGITFFFNAMGWYRQAPGKERELVAAITSGGGSTYYADSVKGRFTISRDNAKNTVYLQMNSLKPEDTAVYYCNADFSKSYDYWGQGTQVTVSS | low polyreactivity
QVQLVESGGGLVQAGGSLRLSCAASGSTLVRKAMGWYRQAPGKERELVAAISRSGGRTYYADSVKGRFTISRDNAKNTVYLQMNSLKPEDTAVYYCARLDGFSASDHDYWGQGTQVTVSS | high polyreactivity
QVQLVESGGGLVQAGGSLRLSCAASGSTFSHYTMGWSRQAPGKERELVAAINYGGASTYYADSVKGRFTISRDNAKNTVFLHMNSLKPEDTSVYYCAAANRPSEQDNYWGQGTQVTVSS | low polyreactivity
QVQLVESGGGLVQAGGSLRLSCAASGSIFNRYAMGWYRQAPGKERELVAAISTHTGTTYYADSVKGRFTISRDNAKNTVYLQMNSLKPEDTAVYYCAKRSRYGYGKSYDYWGQGTQVTVSS | high polyreactivity
QVQLVESGGGLDQAGGSLRLSCAASGFIFRSYTMGWYRQEPRKEREFVPAITWTGGSTYYADSVKGRFTISRDNAKNTVYLQMNSLKPEDTAVYYCNAANWHYSTAPKPYAFDYWGQGTQVTVSS | low polyreactivity
QVQLVESGGGLVQAGGSLRLSCAASGRIFYGNVMGWYRQAPGKERELVAVITSGGNTNYADSVKGRFTISRDNAKNTVYLQMNSLKPEDTAVYYCATAVVAGVWGYDYWGQGTQVSVSS | low polyreactivity
QVQLVESGGGLVQAGGSLRLSCAASGITFYRNAMGWYRQAPGKEMELVAAITWNGGRTYYADSVKGRFTISRDNAKNTVYLQMNSLKPEDTAVYYCAADSGTRNLASYRYYYWGQATQVTVSS | low polyreactivity
QVQLVESGGGLVQAGGRLRLSCAASGGIFSAYAMGWYRQAPGTERELVAAISSGGSTKYADSVKGRVTISRDNAQNTVYLQMNSLKPEDTAVYYCAVLYIRWYTYEYWGQGAQVTVSS | high polyreactivity
QVQLVESGGGLVQAGGSLRLSCAASGSTFPYYAMGRYRQAPGKERELVAAISQNGGSTYYADSVKGRFTISRDNAKNTVYLQMNSLKPEDTAVYYCNADGVGGEYRLSGYDYWGQGTQVTVSS | low polyreactivity
QVQLVESGGGLVQAGGSLRLSCAASGSISSFYAMGWYRQAPGKERELVAGITSGGSTNYADSVKGRFTISRDNAKNTVYLQKNSLKPEDTAVYYCAAVYQGAGTHFDVFVKEFDYWGQGTQVTVSS | low polyreactivity
QVQLVESGGGLVQAGGSLRLSCAASGSTFVYYAMGWYRQAPGKERELVARISSTGSTNYADSVKGRFTISRDNAKNTVYLQMHSLKPEDTAVYYCAARGPSPGHGTYTRTRGQSYYYWGQCTQVTVSS | high polyreactivity
QVQLVESGVGLVQAGGSLRLSCAASGRIFRRYTMGWYRQPPGKERELVAAISASGGNTYYADSVKGRFTISRDNAKNTVYLQMNSLKPEDTAVYYCARRWRPWTQDGDDYWGQGTQVTVSS | high polyreactivity
QVQLVESGGGLVQAGGSLRLSCAASGSIFWGYAMGWYRQAPGKERELVATISWTGGSTYYADSVKGRFTISRDNAKNTVYLQMNSLKPEDTAVYYGAKVIIHYYYVVNLVDVDYWGQGTQVTVSS | low polyreactivity
QDQLVESGGGLVQAGGSLRLSCAASGITFPNYAMGWYGQAPGKERELVAAISRGDSTYYADSVKGRFTISRDNAKNTVYLQMNSLKPEDTAVYYCAARYGRYWSSSGSWTPYGYWGQGTQVTVSS | high polyreactivity
QVQLVESGGGLVQAGGSLRLSCAASGSTFRVYAMGWYRQAPGKEREFVAAITGSDGSTYYADSVKGRFTISRDNAKNTVYLQMNSLKPEDTAVYYCAADYYLQNYETGYGYWGQGTQVTVSS | low polyreactivity
QVQLVESGGGLDQAGGSLRLSCAASARIYGYYANGWYRQAPGKERELVAAINSGGSTYYADSVKGRFTISRDNAKNTVYLQMNSLKPEDTAVYYCAAYKFSVHGYDYWGQGTQGTVSS | high polyreactivity
